PMC10208892 (The Journal of Biological Chemistry, 2023)
Changes are numbered by the printed parent chain.

Tests used:
[1] = biological target: T1, VPS33B, untagged, expressed in yeast (human, UniProt Q9H267 1-617); assay: co-IP
T1 sequence: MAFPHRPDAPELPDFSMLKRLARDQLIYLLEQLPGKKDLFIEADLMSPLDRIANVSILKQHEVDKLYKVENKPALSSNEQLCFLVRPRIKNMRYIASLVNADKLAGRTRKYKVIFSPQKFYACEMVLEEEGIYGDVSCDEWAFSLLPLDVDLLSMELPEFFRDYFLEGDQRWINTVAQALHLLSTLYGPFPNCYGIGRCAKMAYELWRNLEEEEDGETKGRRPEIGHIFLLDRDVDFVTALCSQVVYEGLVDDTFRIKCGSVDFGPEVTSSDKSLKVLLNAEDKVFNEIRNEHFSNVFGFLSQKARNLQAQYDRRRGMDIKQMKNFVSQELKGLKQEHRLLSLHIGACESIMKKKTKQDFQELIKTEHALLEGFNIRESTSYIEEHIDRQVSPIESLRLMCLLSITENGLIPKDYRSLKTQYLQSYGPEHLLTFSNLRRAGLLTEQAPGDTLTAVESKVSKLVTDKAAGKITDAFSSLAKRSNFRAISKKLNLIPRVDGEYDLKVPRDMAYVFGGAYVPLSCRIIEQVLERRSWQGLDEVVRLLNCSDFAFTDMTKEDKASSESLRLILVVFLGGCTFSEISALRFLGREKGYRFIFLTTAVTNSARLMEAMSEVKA

[2] = biological target: T1, VPS33B, untagged, expressed in yeast; assay: native gel or EMSA
[3] = biological target: T2, VPS33B with C-terminal biotinylation signal (human, UniProt Q9H267 1-617, biotin on lysine 41 of the biotinylation signal); assay: co-IP
T2 sequence: T1 sequence

[4] = biological target: T3, VPS33B H344D (human, UniProt Q9H267 1-617, H344D); assay: co-IP
T3 sequence: T1 sequence with H344D

[5] = biological target: T4, VPS33B S243F (human, UniProt Q9H267 1-617, S243F); assay: co-IP
T4 sequence: T1 sequence with S243F

[6] = biological target: T5, HA-VPS33B, expressed in yeast (human, UniProt Q9H267 1-617); assay: co-IP
T5 sequence: T1 sequence

B1: VPS16B(143–316)-3xFLAG (domain or fragment)
chain: RPKGEYRDYSNDWSPSDTVRRLRKGKVCSLERFRSLQDKLQLLEEAVSMHDGNVITAVLIFLKRTLSKEILFRELEVRQVALRHLIHFLKEIGDQKLLLDLFRFLDRTEELALSHYREHLNIQDPDKRKEFLKTCVGLPFSAEDSAHIQDHYTLLERQIIIEANDRHLESAGQT
binding result [1]: binds

B2: VPS16B-3xFLAG, expressed in yeast (natural protein)
chain: MNRTKGDEEEYWNSSKFKAFTFDDEDDELSQLKESKRAVNSLRDFVDDDDDDDLERVSWSGEPVGSISWSIRETAGNSGSTHEGREQLKSRNSFSSYAQLPKPTSTYSLSSFFRGRTRPGSFQSLSDALSDTPAKSYAPELGRPKGEYRDYSNDWSPSDTVRRLRKGKVCSLERFRSLQDKLQLLEEAVSMHDGNVITAVLIFLKRTLSKEILFRELEVRQVALRHLIHFLKEIGDQKLLLDLFRFLDRTEELALSHYREHLNIQDPDKRKEFLKTCVGLPFSAEDSAHIQDHYTLLERQIIIEANDRHLESAGQTEIFRKHPRKASILNMPLVTTLFYSCFYHYTEAEGTFSSPVNLKKTFKIPDKQYVLTALAARAKLRAWNDVDALFTTKNWLGYTKKRAPIGFHRVVEILHKNNAPVQILQEYVNLVEDVDTKLNLATKFKCHDVVIDTYRDLKDRQQLLAYRSKVDKGSAEEEKIDALLSSSQIRWKN
binding result [2]: binds
binding result [3]: binds
binding result [4]: binds
binding result [5]: binds

B3: VPS16B(143–493)-3xFLAG (domain or fragment)
chain: RPKGEYRDYSNDWSPSDTVRRLRKGKVCSLERFRSLQDKLQLLEEAVSMHDGNVITAVLIFLKRTLSKEILFRELEVRQVALRHLIHFLKEIGDQKLLLDLFRFLDRTEELALSHYREHLNIQDPDKRKEFLKTCVGLPFSAEDSAHIQDHYTLLERQIIIEANDRHLESAGQTEIFRKHPRKASILNMPLVTTLFYSCFYHYTEAEGTFSSPVNLKKTFKIPDKQYVLTALAARAKLRAWNDVDALFTTKNWLGYTKKRAPIGFHRVVEILHKNNAPVQILQEYVNLVEDVDTKLNLATKFKCHDVVIDTYRDLKDRQQLLAYRSKVDKGSAEEEKIDALLSSSQIRWKN
binding result [1]: binds

B4: HA-VPS16B-3xFLAG, expressed in yeast (natural protein)
chain: B2 chain
binding result [6]: binds
